Source: patent publication US20220315554A1, “COMPOUNDS COMPRISING A […] LIGAND AND USE THEREOF” (priority 2019, published 2022)

Assays:
[1] = target: T1, Recombinant human FAP (R&D systems, #3715-SE) (human)
T1 sequence: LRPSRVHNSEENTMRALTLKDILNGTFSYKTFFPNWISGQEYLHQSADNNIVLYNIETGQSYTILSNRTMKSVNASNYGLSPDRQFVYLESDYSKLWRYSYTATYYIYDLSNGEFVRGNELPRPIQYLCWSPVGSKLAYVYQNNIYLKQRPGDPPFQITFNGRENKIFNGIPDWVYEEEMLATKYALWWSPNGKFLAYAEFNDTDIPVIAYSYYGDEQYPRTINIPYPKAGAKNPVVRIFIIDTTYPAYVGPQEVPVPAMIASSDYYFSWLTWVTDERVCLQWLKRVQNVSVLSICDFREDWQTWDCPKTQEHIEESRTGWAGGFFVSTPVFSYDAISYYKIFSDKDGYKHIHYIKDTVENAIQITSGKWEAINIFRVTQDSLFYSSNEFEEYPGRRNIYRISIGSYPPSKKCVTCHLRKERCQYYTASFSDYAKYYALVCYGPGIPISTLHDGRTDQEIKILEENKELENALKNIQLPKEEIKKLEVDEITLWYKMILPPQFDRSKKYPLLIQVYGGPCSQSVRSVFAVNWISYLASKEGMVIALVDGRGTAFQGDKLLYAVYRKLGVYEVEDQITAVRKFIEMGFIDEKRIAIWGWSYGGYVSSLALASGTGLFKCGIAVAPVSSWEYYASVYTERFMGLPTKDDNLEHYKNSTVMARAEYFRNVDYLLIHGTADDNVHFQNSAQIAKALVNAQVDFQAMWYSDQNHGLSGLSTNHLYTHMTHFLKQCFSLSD

[2] = target: human fibroblast activation protein (FAP) on FAP-expressing human WI-38 fibroblasts (human); assay: competition FACS, WI-38 cells, vs Cy5-labeled compound; A: pIC50 >8.0

pIC50 Category (Activity) [1] [pIC50]	pIC50 Category (FACS) [2] [pIC50]	Substance
> 8	> 8	Ac-Met-[Cys(3MeBn)-Gly-Pro-Thr-Glu-Phe-Cys]-Asp-His-Phe-Arg-Asp-NH2 (peptide)
–	> 8	Ac-Met-[Cys(3MeBn)-Pro-Pro-Thr-Glu-Phe-Cys]-Asp-Ala-Phe-Arg-Asp-NH2 (peptide)
> 8	> 8	Ac-Met-[Cys(3MeBn)-Pro-Pro-Thr-Glu-Phe-Cys]-Asp-His-Aic-Arg-Asp-NH2 (peptide)
> 8	> 8	Ac-Met-[Cys(3MeBn)-Pro-Pro-Thr-Glu-Phe-Cys]-Asp-His-Ala-Arg-Asp-NH2 (peptide)
> 8	> 8	Ac-Met-[Cys(3MeBn)-Pro-Pro-Thr-Glu-Phe-Cys]-Asp-His-Amf-Arg-Asp-NH2 (peptide)
> 8	> 8	Ac-Met-[Cys(3MeBn)-Pro-Pro-Thr-Glu-Phe-Cys]-Asp-His-Mpa-Arg-Asp-NH2 (peptide)
> 8	> 8	Ac-Met-[Cys(3MeBn)-Pro-Pro-Thr-Glu-Phe-Cys]-Asp-His-Nmf-Arg-Asp-NH2 (peptide)
> 8	> 8	Ac-Met-[Cys(3MeBn)-Pro-Pro-Thr-Glu-Phe-Cys]-Asp-His-Phe-Arg-Ala-NH2 (peptide)
> 8	> 8	Ac-Met-[Cys(3MeBn)-Pro-Pro-Thr-Glu-Phe-Cys]-Asp-His-Phe-Arg-Asp-NH2 (peptide)
> 8	> 8	Ac-Met-[Cys(3MeBn)-Pro-Pro-Thr-Glu-Phe-Cys]-Asp-His-Phe-Arg-NH2 (peptide)
> 8	> 8	Ac-Met-[Cys(3MeBn)-Pro-Pro-Thr-Glu-Phe-Cys]-Asp-His-Phe-Arg-asp-NH2 (peptide)
> 8	> 8	Ac-Met-[Cys(3MeBn)-Pro-Pro-Thr-Glu-Phe-Cys]-Asp-His-Phe-arg-Asp-NH2 (peptide)
> 8	> 8	Ac-Met-[Cys(3MeBn)-Pro-Pro-Thr-Glu-Phe-Cys]-Asp-His-Ppa-Arg-Asp-NH2 (peptide)
> 8	> 8	Ac-Met-[Cys(3MeBn)-Pro-Pro-Thr-Glu-Phe-Cys]-Asp-His-Tic-Arg-Asp-NH2 (peptide)
> 8	> 8	Ac-Met-[Cys(3MeBn)-Pro-Pro-Thr-Glu-Phe-Cys]-Asp-His-phe-Arg-Asp-NH2 (peptide)
> 8	> 8	Ac-Met-[Cys(3MeBn)-Pro-Pro-Thr-Glu-Phe-Cys]-Asp-his-Phe-Arg-Asp-NH2 (peptide)
> 8	> 8	Ac-Met-[Cys(3MeBn)-Pro-Pro-Thr-Glu-Thi-Cys]-Asp-His-Phe-Arg-Asp-NH2 (peptide)
> 8	> 8	Ac-Met-[cys(3MeBn)-Pro-Pro-Thr-Glu-Phe-Cys]-Asp-His-Phe-Arg-Asp-NH2 (peptide)
> 8	> 8	Ac-met-[Cys(3MeBn)-Pro-Pro-Thr-Glu-Phe-Cys]-Asp-His-Phe-Arg-Asp-NH2 (peptide)
> 8	> 8	DOTA-Ttds-Met-[Cys(3MeBn)-Pro-Pro-Thr-Glu-Phe-Cys]-Asp-His-Phe-Arg-Asp-NH2 (peptide)
> 8	> 8	DOTA-Ttds-Nle-[Cys(3MeBn)-Pro-Pro-Thr-Gln-Phe-Cys]-Asp-NH2 (peptide)
> 8	> 8	DOTA-Ttds-Nle-[Cys(3MeBn)-Pro-Pro-Thr-Gln-Phe-Cys]-Bal-OH (peptide)
> 8	> 8	DOTA-Ttds-Nle-[Cys(3MeBn)-Pro-Pro-Thr-Glu-Phe-Cys]-Asp-His-Phe-Arg-Asp-NH2 (peptide)
> 8	–	DOTA-Ttds-Nle-[Cys(3MeBn)-Pro-Pro-Thr-Glu-Phe-Cys]-Asp-NH2 (peptide)
> 8	> 8	DOTA-Ttds-Nle-[Cys(3MeBn)-Pro-Pro-Thr-Glu-Phe-Cys]-Asp-Pamb-Arg-NH2 (peptide)
> 8	> 8	H-Met-[Cys(3MeBn)-Pro-Pro-Thr-Glu-Phe-Cys]-Asp-His-Phe-Arg-Asp-Ttds-Lys(Bio)-NH2 (peptide)
> 8	> 8	H-met-[Cys(3MeBn)-Pro-Pro-Thr-Glu-Phe-Cys]-Asp-His-Phe-Arg-Asp-NH2 (peptide)

pIC50 Category (Activity) [1] [pIC50]	pIC50 Category (FACS) [2] [pIC50]	Substance
< 6	–	Hex-[Cys(3MeBn)-Pro-Pro-Ala-Glu-Phe-Cys]-NH2 (peptide)
< 6	–	Hex-[Cys(3MeBn)-Pro-Pro-Thr-Ala-Phe-Cys]-NH2 (peptide)
> 8	–	Hex-[Cys(3MeBn)-Pro-Pro-Thr-Gln-Otf-Cys]-NH2 (peptide)
> 8	> 8	Hex-[Cys(3MeBn)-Pro-Pro-Thr-Gln-Phe-Cys]-Asp-Ttds-Lys(DOTA)-NH2 (peptide)
> 8	> 8	Hex-[Cys(3MeBn)-Pro-Pro-Thr-Gln-Phe-Cys]-Bhk(DOTA)-OH (peptide)
> 8	> 8	Hex-[Cys(3MeBn)-Pro-Pro-Thr-Gln-Phe-Cys]-Bhk(DOTA-Ttds)-OH (peptide)
> 8	> 8	Hex-[Cys(3MeBn)-Pro-Pro-Thr-Glu-Phe-Cys]-Asp-Arg-NH2 (peptide)
> 8	> 8	Hex-[Cys(3MeBn)-Pro-Pro-Thr-Glu-Phe-Cys]-Asp-Cmp-Arg-NH2 (peptide)
> 8	> 8	Hex-[Cys(3MeBn)-Pro-Pro-Thr-Glu-Phe-Cys]-Asp-Gab-Arg-NH2 (peptide)
> 8	> 8	Hex-[Cys(3MeBn)-Pro-Pro-Thr-Glu-Phe-Cys]-Asp-His-Nmf-Arg-Ttds-Lys(DOTA)-NH2 (peptide)
> 8	> 8	Hex-[Cys(3MeBn)-Pro-Pro-Thr-Glu-Phe-Cys]-Asp-His-Phe-Arg-Asp-Ttds-Lys(DOTA)-NH2 (peptide)
> 8	> 8	Hex-[Cys(3MeBn)-Pro-Pro-Thr-Glu-Phe-Cys]-Asp-His-Ppa-arg-Ttds-Lys(DOTA)-NH2 (peptide)
> 8	> 8	Hex-[Cys(3MeBn)-Pro-Pro-Thr-Glu-Phe-Cys]-Asp-His-phe-Arg-Ttds-Lys(DOTA)-NH2 (peptide)
> 8	> 8	Hex-[Cys(3MeBn)-Pro-Pro-Thr-Glu-Phe-Cys]-Asp-Mamb-Arg-NH2 (peptide)
> 8	> 8	Hex-[Cys(3MeBn)-Pro-Pro-Thr-Glu-Phe-Cys]-Asp-Pamb-Arg-NH2 (peptide)
> 8	> 8	Hex-[Cys(3MeBn)-Pro-Pro-Thr-Glu-Phe-Cys]-Asp-Ttds-Lys(DOTA)-NH2 (peptide)
–	> 8	Hex-[Cys(3MeBn)-Pro-Pro-Thr-Glu-Phe-Cys]-Bal-OH (peptide)
> 8	–	Hex-[Cys(3MeBn)-Pro-Pro-Thr-Glu-Phe-Cys]-Pamb-Arg-NH2 (peptide)
> 8	> 8	Hex-[Cys(tMeBn(DOTA-AET))-Nmg-Pro-Thr-Gln-Phe-Cys]-OH (peptide)
> 8	> 8	Hex-[Cys(tMeBn(DOTA-AET))-Pro-Hyp-Thr-Gln-Phe-Cys]-OH (peptide)
> 8	> 8	Hex-[Cys(tMeBn(DOTA-AET))-Pro-Pro-Thr-Gln-1Ni-Cys]-OH (peptide)
> 8	> 8	Hex-[Cys(tMeBn(DOTA-AET))-Pro-Pro-Thr-Gln-Mpa-Cys]-OH (peptide)
> 8	> 8	Hex-[Cys(tMeBn(DOTA-AET))-Pro-Pro-Thr-Gln-Otf-Cys]-OH (peptide)
> 8	> 8	Hex-[Cys(tMeBn(DOTA-AET))-Pro-Pro-Thr-Gln-Phe-AET] (peptide)
> 8	> 8	Hex-[Cys(tMeBn(DOTA-AET))-Pro-Pro-Thr-Gln-Phe-Cys]-Bal-OH (peptide)
> 8	> 8	Hex-[Cys(tMeBn(DOTA-AET))-Pro-Pro-Thr-Gln-Phe-Cys]-Bhf-OH (peptide)
